Laboratory results reported in doi:10.1101/2022.10.12.511839 (bioRxiv, 2022).

T1: human Scribble PDZ3 domain (1005-1094) (human, UniProt Q14160 1005-1094)
T1 sequence (looked up): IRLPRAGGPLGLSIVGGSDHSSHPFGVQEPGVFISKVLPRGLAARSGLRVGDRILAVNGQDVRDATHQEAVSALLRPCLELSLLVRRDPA


Key:
[1] = target: human Scribble PDZ1 domain (728-815) (human, UniProt Q14160 728-815); experiment: ITC
[2] = target: T1, human Scribble PDZ3 domain (1005-1094); experiment: ITC

human Scribble PDZ1 domain (728-815), sequence (Q14160 728-815): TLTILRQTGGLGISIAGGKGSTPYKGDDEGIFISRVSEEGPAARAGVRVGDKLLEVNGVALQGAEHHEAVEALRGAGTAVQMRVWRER

| Binder | binding result [1] | binding result [2] | Kd [1] [µM] |
| --- | --- | --- | --- |
| WRSRRRETAL [HPV33 E6 C-terminal PBM 10-mer peptide (WRSRRRETAL)] | binds | binds |  |
| RLQRRRETQV [HPV18 E6 C-terminal PBM 10-mer peptide (RLQRRRETQV)] |  | binds |  |
| RRRIRRETQV [HPV70 E6 C-terminal PBM 10-mer peptide (RRRIRRETQV)] | binds | binds |  |
| WRRPRTETQV [HPV31 E6 C-terminal PBM 10-mer peptide (WRRPRTETQV)] | binds | binds |  |
| SSRTRRETQL [HPV16 E6 C-terminal PBM 10-mer peptide (SSRTRRETQL)] |  |  | 9.4 |
| TSRQATESTV [HPV66 E6 C-terminal PBM 10-mer peptide (TSRQATESTV)] | binds | binds |  |
| RTRQRNETQV [HPV51 E6 C-terminal PBM 10-mer peptide (RTRQRNETQV)] | binds | binds |  |
